Data set [1] deals with the molecule itself. Description: crystal structure; TadA*8.20 (0.15 mM) with 0.22 mM 13-nt ssDNA containing d8Az; PEG 3,350, ammonium acetate, Tris pH 8.5, 20 °C.
Data set [2] concerns the molecule itself. The data set is described as follows: crystal structure; TADAC-1.19 (0.3 mM) without ssDNA; PEG 3,350, ammonium citrate tribasic pH 7.0, 20 °C.
Data set [3] deals with the molecule itself. The data set is described as follows: crystal structure; TADAC-1.17 (0.15 mM) with 0.22 mM 13-nt ssDNA containing d8Az; PEG 3,350, Tacsimate pH 6, 20 °C.
Data set [4] deals with the molecule itself. Description: crystal structure; TADAC-1.14 (0.18 mM) without ssDNA; ammonium sulfate, HEPES pH 7.5, 20 °C.

B1: TadA*8.20 (enzyme, E. coli)
chain: MSEVEFSHEYWMRHALTLAKRARDEREVPVGAVLVLNNRVIGEGWNRAIGLHDPTAHAEIMALRQGGLVMQNYRLYDATLYSTFEPCVMCAGAMIHSRIGRVVFGVRNAKTGAAGSLMDVLHHPGMNHRVEITEGILADECAALLCRFFRMPRRVFNAQKKAQSSTD
notes: E. coli tRNA adenosine deaminase TadA, laboratory-evolved variant TadA*8.20 of ABE8.20-m; 167 residues; Crystallised with a 13-nt ssDNA containing 2-deoxy-8-azanebularine; zinc enzyme; also called deaminase of ABE8.20-m; ABE8.20 TadA*; source: E. coli BL21 Star (DE3), purified (Ni-NTA, Ulp1 cleavage, reverse Ni-NTA, heparin, SEC); not shown: His, N-terminal, cleaved; SUMO, N-terminal, cleaved
The stoichiometry N is the number of molecules, sites or subunits per partner or assembly. As to B1, in data set [1], the “stoichiometry N” value was 2.

B2: TADAC-1.19 (enzyme, E. coli)
chain: MSEVEFSHEYWMRHALTLAKRARDERGVPVGAVLVLNNRVIGEGWNRANGLHDPTAHAEIMALRQGGLVMQNYRLYDATLYSTFEPCVMCAGAMIHSRIGRVVFGVRNAKTGAAGSLMDVLHHPGMNHRVEITEGILADECAALLCRFFRMPRRVFNAQKKAQSSTD
notes: E. coli TadA variant: TadA*8.20 with E27G and I49N relative to TadA*8.20; 167 residues; the rows below are written against wild-type TadA; Crystallised without ssDNA; also called TADAC-T1.19; source: E. coli BL21, purified as described for TadA*8.20; not shown: His, N-terminal, cleaved; SUMO, N-terminal, cleaved
In the case of B2, in data set [2], the “stoichiometry N” value was 2.

B3: TADAC-1.17 (enzyme, E. coli)
chain: MSEVEFSHEYWMRHALALAKRARDEREVPVGAVLVLNNRVIGEGWNRGIGLHDPTAHAEIMALRQGGLVMQNYRLYDATLYTTFEPCVMCAGAMIHSRIGRVVFGVRNAKTGAAGSLMDVLHHPGMNHRVEITEGILADECEALLCRFFRMPRRVFNAQKKAQSSTD
notes: E. coli TadA variant: TadA*8.20 with T17A, A48G, S82T and A142E relative to TadA*8.20; 167 residues; the rows below are written against wild-type TadA; Crystallised with a 13-nt ssDNA containing 2-deoxy-8-azanebularine; also called deaminase of CABE-T1.17; source: E. coli BL21, purified as described for TadA*8.20; not shown: His, N-terminal, cleaved; SUMO, N-terminal, cleaved
B3: in data set [3], the “stoichiometry N” value was 2.

B4: TADAC-1.14 (enzyme, E. coli)
chain: MHEVEFSHEYWMRHALTLAKRARDEREVPVGAVLVLNNRVIGEGWNRAKGLHDPTAHAEIMALRQGGLVMQNYRLIDATLYSTFEPCVMCAGAMIHSRIGRVVFGVRNAKTHAAGSLMDVLHHPGMNHRVEITEGILADECAALLCRFFRMPRRVFNAQKKAQSSTD
notes: E. coli TadA variant: TadA*8.20 with S2H, I49K, Y76I and G112H relative to TadA*8.20; Y76I brings position 76 back to the wild-type residue; 167 residues; the rows below are written against wild-type TadA; Crystallised without ssDNA; also called deaminase of CABE-T1.14; source: E. coli BL21 Star (DE3), purified (Ni-NTA, heparin, SEC; Ulp1 tag cleavage and reverse Ni-NTA omitted); not shown: …
On to B4, for which the “stoichiometry N” value in data set [4] was found to be 2.

These data come from publication PMC10188367, “Improved cytosine base editors generated from TadA variants” (Nature Biotechnology, 2023).
